The results in this text go back to paper PMC6468306 (Nucleic Acids Research, 2019).

For assay [1], the target named is T1, ubiquitin (Ub) (mouse, UniProt P0CG49 1-76). Put plainly: pull-down.
Assay [2] concerns the target T1, ubiquitin (Ub). In words: SPR. (In general: SPR reads the build-up and loss of mass on a sensor chip optically.)
A further assay addresses M1-linked diUb (M1-Ub2) (human, UniProt P0CG47). Put plainly: pull-down.
Assay [3] deals with T1, ubiquitin (Ub). In words: SPR. The source holds these as a separate data set.
Assay [4] deals with K48-Ub2 synthesized from K48R Ub and D77 Ub (for crystallization) (mouse, UniProt P0CG49, K48R | D77). Put plainly: crystal structure.

Read-outs that look alike come from different tables or passages of the source.

B1: GST-fused CSB C-terminal region (residues 1412-1493) (domain or fragment)
chain: LQEASALLPTTEHDDLLVEMRNFIAFQAHTDGQASTREILQEFESKLSASQSCVFRELLRNLCTFHRTSGGEGIWKLKPEYC
Take B1: the binding result with ubiquitin (Ub) [1] is “binds”.

B2: GST-fused CSB WHD (residues 1401-1493), wild type (domain or fragment)
chain: LPERLESESGHLQEASALLPTTEHDDLLVEMRNFIAFQAHTDGQASTREILQEFESKLSASQSCVFRELLRNLCTFHRTSGGEGIWKLKPEYC
Take B2: the Kd with ubiquitin (Ub) [2] is 36.1 µM; with ubiquitin (Ub) [3] it was 35.6 µM. For the same molecule, the binding result with M1-linked diUb (M1-Ub2) is “binds”.

B3: GST-fused CSB WHD, Q1413R variant allele (domain or fragment)
chain: LPERLESESGHLREASALLPTTEHDDLLVEMRNFIAFQAHTDGQASTREILQEFESKLSASQSCVFRELLRNLCTFHRTSGGEGIWKLKPEYC
For the molecule B3, binding with ubiquitin (Ub) [3] was put at a Kd of 51.5 µM.

B4: CSB WHD (residues 1401-1493) with the Q1413R variant allele, GST cleaved (domain or fragment)
chain: LPERLESESGHLREASALLPTTEHDDLLVEMRNFIAFQAHTDGQASTREILQEFESKLSASQSCVFRELLRNLCTFHRTSGGEGIWKLKPEYC
Regarding B4, the binding result in assay [4] is reported as “binds”.

B5: GST-fused CSB C-terminal region (residues 1386-1493) (domain or fragment)
chain: SSSLLAKMRARNHLILPERLESESGHLQEASALLPTTEHDDLLVEMRNFIAFQAHTDGQASTREILQEFESKLSASQSCVFRELLRNLCTFHRTSGGEGIWKLKPEYC
For the molecule B5, the binding result with ubiquitin (Ub) [1] is on record as “binds”.

As usually defined, the Kd is the constant that tells how readily two partners part at equilibrium. Read a low Kd as higher affinity.
